In publication PMC10958117, “G-site residue S67 is involved in the fungicide-degrading activity of a tau class glutathione S-transferase from Carica papaya” (The Journal of Biological Chemistry, 2024):

How the values were obtained:
[1] = substrate: N[C@@H](CCC(=O)N[C@@H](CS)C(=O)NCC(=O)O)C(=O)O; experiment: purified protein, by the assay type; set-up: GSH conjugation with chloronitrobenzene substrate, absorbance at 340 nm, Km for glutathione; conditions: pH 7.2; 37.0 °C
purified protein = substrate: CN(C)C(=S)SSC(=S)N(C)C; experiment: purified protein; type: biochemical, Carica papaya; conditions: G-site; S67 necessary for activity

Row | Protein | Km [1] [µM] | Vmax [1] [µM/min] | kcat [1] [s⁻¹] | kcat/Km [1] [M⁻¹ s⁻¹] | Km (purified protein) [µM]
1 | TCpGST (Carica papaya) (protein, wild-type full-length ORF, C-terminal His6, pET-30a, E. coli BL21(DE3)) MADEVVLLDFWPSPFGMRIRIALAEKGIHYEYKEENLRNKSPLLLQMNPVHKKIPVLIHNGKPICESLIQIQYIDEVWSDKAPLLPSDPYQRAQARFWADYVDKKMYEAGRRVWTTKGEEQEGAKKEFIEILKTLEGELGEKPYFGGESFGYVDLTFIPFYTWFSVYESFGKMSIEAECPKLFSWVKRCLEKESVSKSLPDQDKVYGFVLELRKALGI | 30 ± 8.3 | 552 | 0.197 ± 0.0169 | 6550 | 
2 | tau class glutathione S-transferase from Carica papaya (TCpGST) (Carica papaya) (protein, full-length ORF (657 bp), C-terminal His6, pET-30a, E. coli BL21(DE3), Ni-NTA purified) MADEVVLLDFWPSPFGMRIRIALAEKGIHYEYKEENLRNKSPLLLQMNPVHKKIPVLIHNGKPICESLIQIQYIDEVWSDKAPLLPSDPYQRAQARFWADYVDKKMYEAGRRVWTTKGEEQEGAKKEFIEILKTLEGELGEKPYFGGESFGYVDLTFIPFYTWFSVYESFGKMSIEAECPKLFSWVKRCLEKESVSKSLPDQDKVYGFVLELRKALGI |  |  |  |  | 148.4 ± 7
